Measured values: PMC10687048

Biological target: Chikungunya virus (CHIKV) nonstructural protein 1 (nsP1) H37A mutant (chikungunya virus)
Assay: cryo-EM structure; nsP1-mut incubated with SAH and m7GpppAmU at 4 °C overnight; graphene-covered grids; refinement with C12 symmetry, 2.41 Å

Substance “Chikungunya virus (CHIKV) nonstructural protein 1 (nsP1) H37A mutant (enzyme)” has a stoichiometry N of 12.
